The target of this series is T1, IiWRKY34 (Isatis indigotica, UniProt A0A6G8R7I5 1-302).
T1 sequence: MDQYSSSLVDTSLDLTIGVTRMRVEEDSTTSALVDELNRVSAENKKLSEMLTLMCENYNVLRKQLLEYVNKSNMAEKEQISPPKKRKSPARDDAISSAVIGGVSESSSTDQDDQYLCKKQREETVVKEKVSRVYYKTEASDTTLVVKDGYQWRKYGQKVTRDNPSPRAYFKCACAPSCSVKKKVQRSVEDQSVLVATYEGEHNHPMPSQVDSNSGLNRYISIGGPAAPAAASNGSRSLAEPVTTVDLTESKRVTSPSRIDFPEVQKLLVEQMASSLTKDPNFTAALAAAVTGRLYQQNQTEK
The experiment in a line: EMSA. A general note: In EMSA bound probe runs differently from free probe, usually more slowly.

B1: Ii4CL3 promoter mutated W-box probe (Ii4CL3mpF/mpR) (dsDNA)
DNA 1: TCCGATTTTTTTCATAATTAATTTGAAATGTGCGGTTGATTTTTTTCCAA
DNA 2: TTGGAAAAAAATCAACCGCACATTTCAAATTAATTATGAAAAAAATCGGA
Turning to B1, the binding result is recorded as “no binding”.

(Values after article PMC7745056.)
